Patent US20120171195A1

Assays:
HLA-B*8201 (human) = HLA-B*8201 (human) (UniProt P01889); test: Luminex beads; MAb 1/1600; PBS only
HLA-B*4601 (human) = HLA-B*4601 (human) (UniProt P01889); test: Luminex beads; MAb 1/1600; PBS only
HLA-B*0801 (human) = HLA-B*0801 (human) (UniProt P01889); test: Luminex beads; MAb 1/1600; PBS only
HLA-B*4501 (human) = test: Luminex beads; MAb 1/1600; PBS only
HLA-B*2705 (human) = HLA-B*2705 (human) (UniProt P01889); test: Luminex beads; MAb 1/1600; PBS only
HLA-B*4101 (human) = HLA-B*4101 (human) (UniProt P01889); test: Luminex beads; MAb 1/1600; PBS only
HLA-Cw*0304 (human) [1] = test: Luminex beads; MAb 1/1600; PBS only
HLA-Cw*1502 (human) = test: Luminex beads; MAb 1/1600; PBS only
HLA-Cw*1601 (human) = HLA-Cw*1601 (human) (UniProt P10321); test: Luminex beads; MAb 1/1600; PBS only
HLA-Cw*0202 (human) = test: Luminex beads; MAb 1/1600; PBS only
HLA-B*2708 (human) = HLA-B*2708 (human) (UniProt P01889); test: Luminex beads; MAb 1/1600; PBS only
HLA-Cw*0303 (human) = test: Luminex beads; MAb 1/1600; PBS only
HLA-B*5801 (human) = test: Luminex beads; MAb 1/1600; PBS only
HLA-B*5101 (human) = test: Luminex beads; MAb 1/1600; PBS only
HLA-B*4701 (human) = test: Luminex beads; MAb 1/1600; PBS only
HLA-B*5201 (human) = test: Luminex beads; MAb 1/1600; PBS only
HLA-B*4006 (human) = HLA-B*4006 (human) (UniProt P01889); test: Luminex beads; MAb 1/400; competitor IgG-free serum
HLA-Cw*1802 (human) = HLA-Cw*1802 (human) (UniProt P10321); test: as above
HLA-Cw*0801 (human) = HLA-Cw*0801 (human) (UniProt P10321); test: as above
HLA-Cw*1701 (human) = test: as above
[2] = molecular target: HLA-Cw*0401 (Cw4) (human); test: Luminex single-antigen beads; MEM-E/02 1/600; serum Mi127 1/100
[3] = molecular target: HLA-Cw*1701 (Cw17) (human); test: as above
HLA-B*5901 (B59) (human) = test: as above
HLA-B*3901 (B39) (human) = HLA-B*3901 (B39) (human) (UniProt P01889); test: as above
HLA-B*1516 (B63) (human) = test: as above
HLA-B*5703 (B57) (human) = test: as above
HLA-A*2901 (A29) (human) = HLA-A*2901 (A29) (human) (UniProt P04439); test: as above
HLA-Cw*0304 (human) [4] = test: as above
HLA-B*1513 (B77) (human) = test: as above
HLA-A*3201 (A32) (human) = test: as above
HLA-B*0801 (B8) (human) = HLA-B*0801 (B8) (human) (UniProt P01889); test: as above
[5] = molecular target: HLA-Cw*1802 (Cw18) (human) (UniProt P10321); test: as above
HLA-A*2403 (A24) (human) = test: as above
[6] = molecular target: HLA-Cw*1203 (Cw12) (human) (UniProt P10321); test: as above
HLA-B*5102 (B51) (human) = test: as above
HLA-B*4801 (B48) (human) = HLA-B*4801 (B48) (human) (UniProt P01889); test: as above
[7] = molecular target: HLA-Cw*1502 (Cw15) (human); test: as above
HLA-A*3002 (A30) (human) = HLA-A*3002 (A30) (human) (UniProt P04439); test: as above
HLA-A*2501 (A25) (human) = test: as above
HLA-A*3301 (A33) (human) = test: as above
HLA-B*2708 (B27) (human) = HLA-B*2708 (B27) (human) (UniProt P01889); test: as above

Work on “murine monoclonal antibody (MAb) MEM-E/02” yielded an MFI (HLA-B*8201 (human)) of 417 MFI, an MFI (HLA-B*4601 (human)) of 375 MFI and an MFI (HLA-B*0801 (human)) of 262 MFI. For the same substance, the MFI (HLA-B*4501 (human)) was 808 MFI, the MFI (HLA-B*2705 (human)) was 191 MFI and the MFI (HLA-B*4101 (human)) was 645 MFI. It also gave an MFI (HLA-Cw*0304 (human) [1]) of 512 MFI, an MFI (HLA-Cw*1502 (human)) of 485 MFI and an MFI (HLA-Cw*1601 (human)) of 524 MFI. It also gave an MFI (HLA-Cw*0202 (human)) of 785 MFI, an MFI (HLA-B*2708 (human)) of 396 MFI and an MFI (HLA-Cw*0303 (human)) of 530 MFI. The MFI (HLA-B*5801 (human)) was 524 MFI, the MFI (HLA-B*5101 (human)) was 347 MFI and the MFI (HLA-B*4701 (human)) was 804 MFI. The MFI (HLA-B*5201 (human)) was 537 MFI, the MFI (HLA-B*4006 (human)) was 5550 MFI and the MFI (HLA-Cw*1802 (human)) was 7220 MFI. For the same substance, the MFI (HLA-Cw*0801 (human)) was 3530 MFI and the MFI (HLA-Cw*1701 (human)) was 1360 MFI.
With murine monoclonal antibody MAb MEM-E/02 the MFI [2] was < 500 MFI, the MFI [3] was < 500 MFI and the % inhibition (HLA-B*5901 (B59) (human)) was 8%. It also gave an MFI (HLA-B*5901 (B59) (human)) of 848 MFI, a % inhibition (HLA-B*3901 (B39) (human)) of 16% and an MFI (HLA-B*3901 (B39) (human)) of 1480 MFI. The MFI (HLA-B*1516 (B63) (human)) was 1840 MFI, the MFI (HLA-B*5703 (B57) (human)) was 917 MFI and the MFI (HLA-A*2901 (A29) (human)) was < 500 MFI. For the same substance, the MFI (HLA-Cw*0304 (human) [4]) was < 500 MFI, the MFI (HLA-B*1513 (B77) (human)) was < 500 MFI and the MFI (HLA-A*3201 (A32) (human)) was < 500 MFI. The MFI (HLA-B*0801 (B8) (human)) was < 500 MFI, the MFI [5] was < 500 MFI and the % inhibition (HLA-A*2403 (A24) (human)) was 36%. For the same substance, the MFI [6] was < 500 MFI, the MFI (HLA-B*5102 (B51) (human)) was 2520 MFI and the % inhibition (HLA-B*4801 (B48) (human)) was 16%. The MFI [7] was < 500 MFI, the MFI (HLA-A*3002 (A30) (human)) was < 500 MFI and the % inhibition (HLA-A*2501 (A25) (human)) was 36%. The MFI (HLA-A*3301 (A33) (human)) was 3170 MFI and the MFI (HLA-B*2708 (B27) (human)) was 2430 MFI.
